Data from US6979460B1, “Vinyl ether lipids with cleavable hydrophlic headgroups” (Purdue Research Foundation, priority 1999, dated 2005).

What was measured:
[1] = Acid-triggered calcein release from DOPE:vinyl ether lipid vesicles (calcein fluorescence dequenching assay); assay type: physicochemical
Experimental: DOPE and the labile PEG lipid were co-dissolved in chloroform that had been prefiltered through a 2.53 cm plug of anhydrous sodium carbonate to remove traces of acid and water from the solvent. This solution was evaporated under a gentle stream of N2 and further dried under vacuum (<200 μ, 4 h). Vesicles were formed by hydrating the lipid film in the presence of 50 mM calcein using five LN2 freeze-thaw-vortex cycles. This suspension was then extruded at 50° C. through two 100 nm track-etch polycarbonate membrane filters. Extraliposomal calcein was removed using a single pass through a 40 cm Sephadex G-50 gel column equilibrated with 150 mM NaCl. The fraction eluting at the void volume was collected and stored at 8° C. until use. Light-sensitive vesicles were prepared in the same manner, except that bacteriochlorophyll a (Bchl) was codissolved in the chloroform lipid solution. Other agents or mixtures of agents, such as therapeutic compounds or diagnostic agents, are substituted for calcein in the above protocol resulting in liposomal encapsulation of the substituted agent.
Vesicle release of the liposomes made in example 4 above, was monitored at 37° C. as a function of time using the calcein fluorescence dequenching assay. Acid-trigged release was initiated by dilution of the vesicles into an acidic buffer solution as described by Gerasimov et al. Light-triggered release was promoted by aerobic illumination (800 nm, 1 W) of a continuously stirred 1 cm quartz cuvette with a SDL 820 diode laser coupled to an optical fiber. The fiber was mounted perpendicular to the cuvette surface to produce a spot of ˜3 mm diameter. Both triggering methods were conducted either in the absence or presence of ten-fold excess of egg phosphatidylcholine (EPC) vesicles as a membrane “sink”.

[2] = DOPE:CVEP/calcein vesicles with DSPE-PEG3350-folate as targeting ligand

Row | Substance | t50% release ([1]; 98:2 DOPE:DVEP vesicles, pH 4.5, in the absence of sink EPC) | calcein leakage ([1]; 98:2 DOPE:DVEP vesicles, pH 7.4, sink EPC present or not) | t50% release ([1]; 98:2 DOPE:lipid vesicles (identical loadings), pH 4.5, 37° C.) | cellular calcein fluorescence pattern (cytoplasmic delivery) [2]
1 | rac-1,2-Dioleyl-3-(4′-hydroxy-1′-butenyl)-glyceryl polyethylene [125] glycolate [DVEP] | ≈ 3 h | lack of leakage | 23 min | 
2 | 4-o-Cholesteryl-(3Z-buten-1-yl)-polyethylene [125] glycolate [CVEP] |  |  |  | punctuated fluorescence, followed by diffuse cytoplasmic fluorescence
